Measured values: the RNAGym collection of RNA variant scans (doi:10.1073/pnas.2313332121)

B1: TPR t1 (parent)
chain: GACCAAUCUGCCCUCAGAGCUCGAGAACAUCUUCGGAUGCAGAGGAGGCAGGCUUCGGUGGCGCGAUAGCGCCAACGUCCUCAACCUCCAAUGCAUCCCACCACAUGAUGAUGCCUGAAGAGCCUUGGUUUUUUG

Variants of: B1
Experiment: polymerase ribozyme fitness, log enrichment relative to wild type (log ratio); higher = more active; in vitro selection for triplet polymerase activity
Outline: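 One round of in vitro selection, in triplicate, was applied to PCR-built, transcribed mutant libraries of each subunit of a heterodimeric triplet polymerase ribozyme. The steps were annealing with a biotinylated primer, partner subunit and triplets, incubation frozen at −7 °C, gel excision of extended constructs, streptavidin-bead capture and RT-PCR. Fitness is the logarithm, base 2, of genotype enrichment over wild-type enrichment from inverse-variance-weighted replicate averages of Illumina-sequenced inputs and outputs, keeping genotypes with ≥10 input reads and ≥1 read per output.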

| Variant | polymerase ribozyme fitness (log ratio) |
| --- | --- |
| C85G G117C | -5.23 |
| C94G C123A C124A | 1.47 |
| U92G C97U G110U | -5.82 |
| C85G A119G | -0.0195 |
| C89U A108G A119G U131G U132C | -1.34 |
| C86A A90C G135U | -2.98 |
| U87G C102A C124G | 0.127 |
| A95C U109A | -7.08 |
| C94A G120C | -1.64 |
| C94U U96A | -1.02 |
| C88G G120C | -0.00486 |
| C88G G120A | -1.21 |
| C88U C124A | 1.47 |
| A84U U106G A118G | -1.83 |
| A84G C88U U116G C124A | -0.458 |
| A91U C98U | -3.3 |
| U87G A91U U109A U125C | -5.71 |
| A91U A121C C124A | 0.449 |
| A95U G120A | -0.385 |
| G93C U129A | -1.91 |
| A84U G128A | -1.72 |
| A90U A105G | -3.78 |
| C86G G93C U132C | -2.42 |
| G93A G117C | -3.87 |

| Variant | polymerase ribozyme fitness (log ratio) |
| --- | --- |
| C89A C94A C115U U130A | -3.36 |
| C94G U106A | -1.14 |
| C85U A90U U109G C124A | -6.07 |
| A84U U106A | -0.185 |
| G93A G117C U130G | -5.98 |
| C86U A90U | -1.08 |
| C94A A111U | -0.728 |
| C89U G117C | -4.26 |
| U92C C123G | 0.159 |
| G93C A121U U133G | 1.15 |
| U96A C114U | -3.4 |
| C89G G120C | -0.58 |
| U96A C104U U132A | -0.322 |
| G93U U132C | -1.31 |
| U87G G113U | -3.33 |
| C86G C102G C115A U133A | -5.49 |
| A90G C101G C115G | -2.74 |
| A84G | -0.482 |
| A84U | -0.405 |
| U87A C89U G128A | -2.15 |
| U87C U130C | 0.298 |
| U92A A108U U112C G113A A121G | -6.52 |
| A84G U129G | -1.32 |
| C88A C97U U109A G110C | -6.36 |

| Variant | polymerase ribozyme fitness (log ratio) |
| --- | --- |
| A95G A103C G120U G135U | -6.78 |
| U87C C114G | -2 |
| G93C C114G | -4.17 |
| C86A G127C | -1.91 |
| G93A U132A | -1.15 |
| C85G G113C | -3.51 |
| C85G G113A | -2.15 |
| C94A G117U U129A | -4.44 |
| G93A C123A | 0.264 |
| C89G A111G G113C | -3.54 |
| A95C G107A | -7.02 |
| A84U C101U G122A U132A | -1.15 |
| C86G C88A | -1.96 |
| C85U C86G | -1.13 |
| A90U C114G G117A | -4.57 |
| C85A A95U A100U | -3.28 |
| C89G A111C | -2.08 |
| A91U C115U | -2.04 |
| A91U C115G | -2.97 |
| G93C G120U | -1.78 |
| G93C G120C | -1.19 |
| U87C G120A G127A | -1.22 |
| C94U G113U | -2.09 |
| G93A G122A U125G | -3.18 |

| Variant | polymerase ribozyme fitness (log ratio) |
| --- | --- |
| C85A C89A U106A C114A | -5.22 |
| A84U U109G | -4.27 |
| U92G C123A | -2.78 |
| U92A A119G G127C | -2.05 |
| C94U A95C | -1.19 |
| C94U A95G | -0.3 |
| A90G C101A C123A | -0.711 |
| U96A G113A C115A G120C | -3.71 |
| C89A G93A U106A | -3.07 |
| C86G U112G | 0.00839 |
| U96G G117U | -2.13 |
| U87C C98A | -4.87 |
| U96G G127A | -2.63 |
| U92A U116C | -3.44 |
| C85A C99U | -4.7 |
| U87A C114A | -2.58 |
| U96A U106A | -0.585 |
| C86A C123U C124G | 0.744 |
| C89U C123A | 0.125 |
| C89G A100C | -3.25 |
| U96G C114U | -2.28 |
| C85U C88U | -0.176 |
| A91U U109A | -8.07 |
| C88U G117A | -1.32 |

| Variant | polymerase ribozyme fitness (log ratio) |
| --- | --- |
| C85A A100C | -2.71 |
| C94U G128U | -1.7 |
| A95G C114G | -3.45 |
| G93A C104A G113C | -4.27 |
| C94U C104U | -0.577 |
| C85U G135U | -1.91 |
| C89A G120A G128C U132C | -3.37 |
| A90C C97U U112C C114A | -3.18 |
| C88U U125G | -1.39 |
| C86U G120A U130C G135U | -0.0631 |
| C89A A121U U125G | -0.211 |
| C86G A100U | -0.874 |
| U92G U109A C124A U131A | -6.86 |
| A91G A100C A111U A121G | -3.81 |
| C89G G93U G120U | -3.31 |
| A91C U96A | -2.09 |
| C88G C104A U112G | -4.26 |
| C85G G117C G128U | -7.06 |
| A84G A118G | -0.615 |
| U96G A100U C104U | -0.962 |
| A95G U116A C124U | -0.576 |
| C85U C123G | 0.896 |
| C85U U87A C88A | -2.23 |
| C88U G110C | -3.92 |

| Variant | polymerase ribozyme fitness (log ratio) |
| --- | --- |
| C94A C115U | -2.44 |
| C88U C123A | 1.43 |
| C88U C123U | 0.953 |
| U87A C115A | 0.108 |
| U87A C115U | -0.739 |
| U87C C124U | 0.583 |
| A84U U112G | 0.742 |
| C89G C104A | -3.34 |
| A90C A91C G110A | -4.36 |
| C89A U130G | -1.51 |
| G93A C114A A118C | -3.7 |
| C88U G93A A108G C115U A118U G135C | -4.45 |
| C86U U112A | 0.825 |
| C88A G113U | -2.76 |
| C94A G110A | -2.19 |
| A84U G127A | -0.952 |
| U87A G113A | -1.76 |
| U96G C102U | -2.86 |
| C86U A103C | -5.52 |
| C88U C98A U106G | -5.05 |
| C85U C99U | -4.89 |
| A84C C114G G127A | -4.73 |
| A91G U125A | -0.619 |
| C94G U109C A121U | -6.64 |

| Variant | polymerase ribozyme fitness (log ratio) |
| --- | --- |
| C94A C114A G122A | -3 |
| C94A C123U | 0.185 |
| U87A U129A | -0.873 |
| G93C C123G | -0.285 |
| A90G A95C | -0.759 |
| C89A A111C | -2.88 |
| C89A A111G | -1.35 |
| C86G A100U G128C | -3.41 |
| C86U C97U | -0.517 |
| C85G U132A | -1.6 |
| G93C U106C U112C | 0.785 |
| C88A C89G C123U U134G | 0.911 |
| C89A A91U | -1.18 |
| A90U U125G | -1.11 |
| C89U C115A | 0.206 |
| C88U G110U U125G | -2.46 |
| A91U U112A G117C C123U U134A | -2.54 |
| C85U U96C | -0.852 |
| A91U U96G G120U | -1.75 |
| C88U U112G | 0.74 |
| C89A U116G C123G | -3.17 |
| C94G C102A | -3.54 |
| U87G G93A U112A U133A | 1.36 |
